Source: PMC9601230 (mBio, 2022)

Legend:
[1] = target: the molecule itself; test: SEC; analytical Superdex 75 10/300GL, 0.3 mL/min, 20 mM Tris pH 8.0, 200 mM NaCl, 0.5 mM TCEP; 100 uL of protein at 2 mg/mL loaded; calibrated with protein standards
DrRuvC [2] = target: T1, DrRuvC (Deinococcus radiodurans, UniProt Q9RX75 1-179); test: EMSA; EMSA: 100 nM 6-FAM substrate, 50 mM Tris-HCl pH 8.0, 125 mM NaCl, 10 ug/mL BSA, 1 mM TCEP, 5% glycerol, 30 C 10 min; 5% native PAGE in 0.5x Tris-borate; details: protein: recombinant, tags: N-terminal His-MBP-TEV, removed by TEV, chain copies: 2, label: 5'-6-FAM on J31-1
T1 sequence: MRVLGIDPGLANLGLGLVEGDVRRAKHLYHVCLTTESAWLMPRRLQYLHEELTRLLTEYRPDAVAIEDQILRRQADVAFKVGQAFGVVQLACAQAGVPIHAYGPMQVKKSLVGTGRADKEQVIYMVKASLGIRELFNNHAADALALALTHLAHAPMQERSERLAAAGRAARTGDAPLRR

DrRuvC [3] = target: T1, DrRuvC; test: EMSA; no obvious specific complex band; EMSA: 100 nM 6-FAM substrate, 50 mM Tris-HCl pH 8.0, 125 mM NaCl, 10 ug/mL BSA, 1 mM TCEP, 5% glycerol, 30 C 10 min; 5% native PAGE in 0.5x Tris-borate; details: protein: recombinant; tags: N-terminal His-MBP-TEV, removed by TEV; chain copies: 2; label: 5'-6-FAM on J31-1; blunt, nick between J31-5 and J31-7

B1: RuvC from Deinococcus radiodurans (enzyme, UniProt Q9RX75 1-179, looked up)
chain: MRVLGIDPGLANLGLGLVEGDVRRAKHLYHVCLTTESAWLMPRRLQYLHEELTRLLTEYRPDAVAIEDQILRRQADVAFKVGQAFGVVQLACAQAGVPIHAYGPMQVKKSLVGTGRADKEQVIYMVKASLGIRELFNNHAADALALALTHLAHAPMQERSERLAAAGRAARTGDAPLRR
notes: Holliday junction resolvase RuvC, Deinococcus radiodurans, full-length gene, residues 1 to 179, amplified from genomic DNA; Expressed from pET28-HMT (His-MBP-TEV); tag removed with TEV protease, so residues of the TEV site may be left at the N-terminus; also called DrRuvC; dr0440; source: E. coli Rossetta (DE3), purified (HisTrap, TEV cleavage, HisTrap, Heparin, Superdex 75); not shown: His6, …
stoichiometry N [1]: 2

B2: mobile HJ (HJ31) (structured_DNA)
DNA 1: GCTAGCCACAGCCATTCGTACGATTGCGGGA
DNA 2: TCCCGCAATCGTACGAAACCGAGCACGATCT
DNA 3: AGATCGTGCTCGGTTTCGTACCAGATGCCAT
DNA 4: ATGGCATCTGGTACGAATGGCTGTGGCTAGC
Kd (DrRuvC [2]; four-way junction with mobile homologous core, 4 strands): ~150 nM

B3: immobile HJ (structured_DNA)
DNA 1: GCTAGCCACAGCCATTCGTACGATTGCGGGA
DNA 2: TCCCGCAATCGTCCGTTTCCGAGCACGATCT
DNA 3: AGATCGTGCTCGGAAAGCCTGCAGATGCCAT
DNA 4: ATGGCATCTGCAGGCAATGGCTGTGGCTAGC
Kd (DrRuvC [2]; four-way junction, 4 strands): ~150 nM

B4: nicked HJ (structured_DNA)
DNA 1: GCTAGCCACAGCCATTCGTACGATTGCGGGA
DNA 2: TCCCGCAATCGTCCGTTTCCGAGCACGATCT
DNA 3: AGATCGTGCTCGGAAA
DNA 4: GCCTGCAGATGCCAT
DNA 5: ATGGCATCTGCAGGCAATGGCTGTGGCTAGC
Kd (DrRuvC [2]; 3'-OH and 5'-OH at nick, four-way junction, nick in strand opposite J31-1, 5 strands): ~150 nM

B5: nicked duplex (dsDNA)
DNA 1: GCTAGCCACAGCCATTCGTACGATTGCGGGA
DNA 2: TCCCGCAATCGTACG
DNA 3: AATGGCTGTGGCTAGC
Kd (DrRuvC [3]): ~408 nM

B6: replication fork (structured_DNA)
DNA 1: GCTAGCCACAGCCATTCGTACGATTGCGGGA
DNA 2: TCCCGCAATCGTCCGTTTCCGAGCACGATCT
DNA 3: AGATCGTGCTCGGAAA
DNA 4: AATGGCTGTGGCTAGC
Kd (DrRuvC [2]; three-way junction with nick at junction, 4 strands): ~410 nM

B7: Y-junction (structured_DNA)
DNA 1: GCTAGCCACAGCCATTCGTACGATTGCGGGA
DNA 2: TCCCGCAATCGTCCGTTTCCGAGCACGATCT
DNA 3: AGATCGTGCTCGGAAAAATGGCTGTGGCTAGC
Kd (DrRuvC [2]; three-way junction, 3 strands): ~425 nM
